Ends that are not written are not given here. Compound 1 = not defined here
Experiments:
[1] = 99mTc labelling of Compound 9, radiochemical purity by ITLC and HPLC (Example 13); type: physicochemical
Method: Compound 9 was prepared in an analogous manner to Examples 7 and 8, and labelled with ^99mTc in solution (Preparation 1) or via a freeze-dried kit according to Example 10 (Preparation 2).
For Preparation 1, 100 μg of Compound 9 was dissolved in 1 ml of pH 8.5 borate buffer. This was transferred to a P6 vial and sealed. 1 ml ^99mTc-pertechnetate in saline (1.0 GBq/ml, from an Amertec II generator) was added at room temperature, together with 0.1 ml SnCl2 solution (10 mg SnCl2 in 100 ml N2 purged saline). The activity was measured using an ion chamber. The RCP was measured using ITLC and HPLC.

[2] = 99mTc labelling of Compound 5, radiochemical purity by ITLC and HPLC (Example 11); type: physicochemical
Method: A freeze-dried formulation containing: • 50 μg PABA (para-aminobenzoic acid), • 30 μg SnCl2, • 90 μg MDP (methylenediphosphonic acid), • 1.32 mg NaHCO3, • 98 μg Na2CO3, • 4 mg NaOAc, was sealed under nitrogen gas in a 10 ml glass vial. The vial was removed from freezer storage and left at room temperature for 15 minutes, and was then reconstituted with 100 μl of a solution containing Compound 5, ie. the peptide-chelator conjugate Ac-Asn-Gln-Glu-Gln-Val-Ser-Pro-(I-Tyr)-Thr-Leu-Leu-Lys-Gly-[Compound 1] (2 mg in 2 ml water) and Xml of ^99mTc-pertechnetate in saline, with a radioactive concentration of 0.5 GBq/ml, from an Amertec II ^99mTc generator at room temperature. The activity was measured using an ion chamber. The RCP was measured using ITLC and HPLC. The results are shown in Table 3 for different values of X: […]

[3] = Prep 1, X 2 ml, 1.04 GBq, 255 min post-reconstitution
[4] = Prep 2, X 2 ml, 1 GBq, 15 min post-reconstitution
[5] = Prep 3, X 5 ml, 2.47 GBq, 15 min post-reconstitution

Substance | RCP by ITLC ([1]; Preparation 1: in solution, pH 8.5 borate buffer, room temperature) [%] | RCP by HPLC ([1]; Preparation 2: freeze-dried kit according to Example 10) [%] | RCP % (ITLC) ([2]; Prep 1, X 2 ml, 1.04 GBq, 15 min post-reconstitution) [%] | RCP % (HPLC) [2, 3] [%] | RCP % (ITLC) [2, 3] [%] | RCP % (HPLC) [2, 4] [%] | RCP % (ITLC) [2, 4] [%] | RCP % (HPLC) ([2]; Prep 2, X 2 ml, 1 GBq, 60 min post-reconstitution) [%] | RCP % (HPLC) [2, 5] [%] | RCP % (ITLC) [2, 5] [%] | RCP % (HPLC) ([2]; Prep 3, X 5 ml, 2.47 GBq, 150 min post-reconstitution) [%] | RCP % (ITLC) ([2]; Prep 4, X 2 ml, 1.02 GBq, 15 min post-reconstitution) [%] | RCP % (HPLC) ([2]; Prep 4, X 2 ml, 1.02 GBq, 140 min post-reconstitution) [%]
[Compound 1]-Cys-Cys-Glu-Leu-Cys-Cys-Asn-Pro-Ala-Cys-Ala-Cys-Tyr-OH ({Compound 1}-CCELCCNPACACY-OH; reading uncertain; also: cyclic, bridges not given here, printed as [Compound 1]-Cys-Cys-Glu-Leu-Cys-Cys-Asn-Pro-Ala-Cys-Ala-Cys-Tyr-OH) [Compound 9] | 96 | 82 | – | – | – | – | – | – | – | – | – | – | –
Ac-Asn-Gln-Glu-Gln-Val-Ser-Pro-(I-Tyr)-Thr-Leu-Leu-Lys-Gly-[Compound 1] (chain 1 Ac-NQEQVSP; chain 2 TLLKG-{Compound 1}; not fully specified (C-terminus); reading uncertain; also: chains 1 and 2 joined in one chain through I-Tyr) [Compound 5, peptide-chelator conjugate of Compound 1 with thrombus-targeting peptide] | – | – | 99.4 | 86.8 | 99.2 | 83.0 | 99.3 | 85.2 | 86.5 | 99.3 | 87.6 | 99.1 | 86.6

Source: patent publication US8852550B2, “Chelator conjugates” (GE Healthcare Limited, priority 2001, dated 2014)
